Measurements reported in patent US20260207767A1 (ANAVEON, published 2026).
Where two headings read alike, the source gives them in different places.

Columns and labels:
[1] = molecular target: T1, cynoPD-1 His (AcroBiosystems PD1-C5223) (cynomolgus monkey, UniProt B0LAJ3 25-170); assay: SPR, Ab captured, PD-1 analyte
T1 construct: also called cPD-1; cynomolgus PD-1 His-tagged
Method: (§1) Anti-human Fc IgG (Jackson) was immobilized on amine reactive CM5 chips (GE Healthcare) using 1×HBS-EP+ running buffer (GE Healthcare). The test antibodies were captured at flow rate 10 μl/min with 30 s contact time. […] Regeneration was carried out with 10 mM Glycine-HCl, pH 1.5 at flow rate 10 μL/min. This protocol is to be used, unless stated otherwise, in determination of Kd wherever used to define the KD of antibodies specified herein, with adaptions where necessary with regard to the nature of the interaction partners.

[2] = molecular target: T2, hPD-1 Avi-Tag Biotin (AcroBiosystems PD1-H82E4) (human, UniProt Q15116 25-167, biotin on Avi-Tag); assay: SPR, Ab captured, PD-1 analyte
T2 construct: bought; also called human PD-1
Method: as §1

[3] = molecular target: T3, human PD-1 expressed on cells (human, UniProt Q15116 25-288); assay: flow cytometry, CHO-S hPD-1
T3 construct: whole, on cells; cell line named under assay; also called CHO-S hPD-1; Raji PD-1
Method: CHO-S hPD-1 cells were incubated with a 5-fold serial dilution of the indicated humanized antibodies. Antibody binding was detected with goat anti-human IgG-PE. MFI were plotted over the antibody concentration to obtain EC50 values.

[4] = molecular target: T1, cynoPD-1 His (AcroBiosystems PD1-C5223); assay: SPR, Ab captured, PD-1 analyte; remark: listed apart in the source
Method: (§2) 10 mM glycine (pH 1.5) as regeneration buffer was injected to flow cells following every dissociation phase.

hPD-1 His-tagged = molecular target: T4, hPD-1 His-tagged (human, UniProt Q15116 25-167); assay: SPR, Ab captured, PD-1 analyte
T4 construct: also called recombinant hPD-1 (AcroBio)
Method: as §2

[5] = molecular target: T5, recombinant cynoPD-1 (construct not stated) (cynomolgus monkey, UniProt B0LAJ3 25-170); assay: SPR, Ab captured, PD-1 analyte
T5 construct: not shown: probably His as elsewhere
Method: (§3) Recombinant humanized antibody variants of ZJN296 were expressed as human IgG1 in HEK293 cells. For SPR analysis (Biacore 8K, GE Healthcare) anti-human Fc IgG (Bethyl, A80-304P) was immobilized on CM5 chips (Cytiva) using 1×HBS-EP+ running buffer. […] 10 mM glycine (pH 1.5) as regeneration buffer was injected to flow cells following every dissociation phase.

[6] = molecular target: T6, recombinant hPD-1 (construct not stated) (human, UniProt Q15116 25-167, limits assumed); assay: SPR, Ab captured, PD-1 analyte
T6 construct: also called huPD-1; Human PD1
Method: as §3

T3 sequence (Q15116 25-288): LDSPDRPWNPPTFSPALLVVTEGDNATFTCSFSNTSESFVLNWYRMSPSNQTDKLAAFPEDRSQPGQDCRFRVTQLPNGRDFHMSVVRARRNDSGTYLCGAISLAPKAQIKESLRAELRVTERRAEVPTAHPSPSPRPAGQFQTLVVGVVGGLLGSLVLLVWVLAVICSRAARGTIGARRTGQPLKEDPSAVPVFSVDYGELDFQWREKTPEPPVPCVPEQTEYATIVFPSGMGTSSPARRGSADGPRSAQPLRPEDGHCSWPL
T4 sequence (Q15116 25-167 limits assumed): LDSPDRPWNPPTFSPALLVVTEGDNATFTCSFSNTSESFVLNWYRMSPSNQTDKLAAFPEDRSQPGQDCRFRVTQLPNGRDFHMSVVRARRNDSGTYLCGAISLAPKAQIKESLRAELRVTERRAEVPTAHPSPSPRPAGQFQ
T6 sequence (Q15116 25-167 limits assumed): as above
T2 sequence (Q15116 25-167 limits assumed): as above
T5 sequence (B0LAJ3 entry or part of it limits assumed): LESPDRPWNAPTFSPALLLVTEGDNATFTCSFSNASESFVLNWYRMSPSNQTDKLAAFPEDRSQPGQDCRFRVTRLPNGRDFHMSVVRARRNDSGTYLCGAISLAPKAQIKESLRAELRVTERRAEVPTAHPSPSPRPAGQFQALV
T1 sequence (B0LAJ3 entry or part of it limits assumed): as above

| Binder | Kd [1] | koff [1] | kon [1] | Kd [2] | koff [2] | kon [2] | EC50 [3] | Top MFI [3] | Kd [4] | koff [4] | kon [4] | Kd (hPD-1 His-tagged) | koff (hPD-1 His-tagged) | kon (hPD-1 His-tagged) | Kd [5] | koff [5] | kon [5] | Kd [6] | koff [6] | kon [6] |
| --- | --- | --- | --- | --- | --- | --- | --- | --- | --- | --- | --- | --- | --- | --- | --- | --- | --- | --- | --- | --- |
| z5-XVT458 (antibody, human IgG1, kappa, V domains shown, hIgG1; numbering as for z1; also called GH + V067A + T073K) VH: QVQLVQSGAEVKKPGASVKVSCKASGYTFTNFYIHWVRQAPGQGLEWMGSIYPNYGDTAYNQKFKDRATMTTDKSTSTAYMELRSLRSDDTAVYYCARGYSYAMDYWGQGTTVTVSS VL: DIQMTQSPSSVSASVGDRVTITCSASQGISGDLNWYQQKPGKAPKLLIYHTSSLHSGVPSRFSGSGSGTDFTLTISSLQPEDFATYYCQYYSKDLLTFGGGTKLEIKR | 57.3 nM | 0.00336 s⁻¹ | 58600 M⁻¹ s⁻¹ | 15.9 nM | 0.00145 s⁻¹ | 91400 M⁻¹ s⁻¹ | 4.51 nM | 46200 MFI |  |  |  |  |  |  |  |  |  |  |  |  |
| z6-XVT458 (antibody, human IgG1, kappa, V domains shown, hIgG1; numbering as for z1; also called GH + T071V + T073K) VH: QVQLVQSGAEVKKPGASVKVSCKASGYTFTNFYIHWVRQAPGQGLEWMGSIYPNYGDTAYNQKFKDRVTMTVDKSTSTAYMELRSLRSDDTAVYYCARGYSYAMDYWGQGTTVTVSS VL: DIQMTQSPSSVSASVGDRVTITCSASQGISGDLNWYQQKPGKAPKLLIYHTSSLHSGVPSRFSGSGSGTDFTLTISSLQPEDFATYYCQYYSKDLLTFGGGTKLEIKR | 53.8 nM | 0.00314 s⁻¹ | 58400 M⁻¹ s⁻¹ | 14.5 nM | 0.00133 s⁻¹ | 92000 M⁻¹ s⁻¹ | 3.93 nM | 46800 MFI |  |  |  |  |  |  |  |  |  |  |  |  |
| z4-XVT458 (antibody, human IgG1, kappa, V domains shown, hIgG1; numbering as for z1; also called GH + V067A + T071V) VH: QVQLVQSGAEVKKPGASVKVSCKASGYTFTNFYIHWVRQAPGQGLEWMGSIYPNYGDTAYNQKFKDRATMTVDTSTSTAYMELRSLRSDDTAVYYCARGYSYAMDYWGQGTTVTVSS VL: DIQMTQSPSSVSASVGDRVTITCSASQGISGDLNWYQQKPGKAPKLLIYHTSSLHSGVPSRFSGSGSGTDFTLTISSLQPEDFATYYCQYYSKDLLTFGGGTKLEIKR | 51 nM | 0.00323 s⁻¹ | 63300 M⁻¹ s⁻¹ | 13.3 nM | 0.00131 s⁻¹ | 98800 M⁻¹ s⁻¹ | 4.54 nM | 46700 MFI |  |  |  |  |  |  |  |  |  |  |  |  |
| z7-XVT458 (antibody, human IgG1, kappa, V domains shown, hIgG1; numbering as for z1; also called GH + V067A + T071V + T073K) VH: QVQLVQSGAEVKKPGASVKVSCKASGYTFTNFYIHWVRQAPGQGLEWMGSIYPNYGDTAYNQKFKDRATMTVDKSTSTAYMELRSLRSDDTAVYYCARGYSYAMDYWGQGTTVTVSS VL: DIQMTQSPSSVSASVGDRVTITCSASQGISGDLNWYQQKPGKAPKLLIYHTSSLHSGVPSRFSGSGSGTDFTLTISSLQPEDFATYYCQYYSKDLLTFGGGTKLEIKR | 54.4 nM | 0.00321 s⁻¹ | 58900 M⁻¹ s⁻¹ | 14.3 nM | 0.00136 s⁻¹ | 95700 M⁻¹ s⁻¹ | 3.88 nM | 46000 MFI |  |  |  |  |  |  |  |  |  |  |  |  |
| z1-XVT458 (antibody, human IgG1, kappa, V domains shown, hIgG1; also called GH + V067A) VH: QVQLVQSGAEVKKPGASVKVSCKASGYTFTNFYIHWVRQAPGQGLEWMGSIYPNYGDTAYNQKFKDRATMTTDTSTSTAYMELRSLRSDDTAVYYCARGYSYAMDYWGQGTTVTVSS VL: DIQMTQSPSSVSASVGDRVTITCSASQGISGDLNWYQQKPGKAPKLLIYHTSSLHSGVPSRFSGSGSGTDFTLTISSLQPEDFATYYCQYYSKDLLTFGGGTKLEIKR | 57.3 nM | 0.00359 s⁻¹ | 62700 M⁻¹ s⁻¹ | 15.9 nM | 0.00146 s⁻¹ | 92300 M⁻¹ s⁻¹ | 5.85 nM | 45200 MFI |  |  |  |  |  |  |  |  |  |  |  |  |
| z0-XVT458 (antibody, human IgG1, kappa, V domains shown, hIgG1; also called GH + uVL) VH: QVQLVQSGAEVKKPGASVKVSCKASGYTFTNFYIHWVRQAPGQGLEWMGSIYPNYGDTAYNQKFKDRVTMTTDTSTSTAYMELRSLRSDDTAVYYCARGYSYAMDYWGQGTTVTVSS VL: DIQMTQSPSSVSASVGDRVTITCSASQGISGDLNWYQQKPGKAPKLLIYHTSSLHSGVPSRFSGSGSGTDFTLTISSLQPEDFATYYCQYYSKDLLTFGGGTKLEIKR | 56.7 nM | 0.00358 s⁻¹ | 63200 M⁻¹ s⁻¹ | 16.1 nM | 0.00147 s⁻¹ | 91100 M⁻¹ s⁻¹ | 5.74 nM | 45200 MFI |  |  |  |  |  |  |  |  |  |  |  |  |
| z3-XVT458 (antibody, human IgG1, kappa, V domains shown, hIgG1; numbering as for z1; also called GH + T073K) VH: QVQLVQSGAEVKKPGASVKVSCKASGYTFTNFYIHWVRQAPGQGLEWMGSIYPNYGDTAYNQKFKDRVTMTTDKSTSTAYMELRSLRSDDTAVYYCARGYSYAMDYWGQGTTVTVSS VL: DIQMTQSPSSVSASVGDRVTITCSASQGISGDLNWYQQKPGKAPKLLIYHTSSLHSGVPSRFSGSGSGTDFTLTISSLQPEDFATYYCQYYSKDLLTFGGGTKLEIKR | 57.7 nM | 0.00331 s⁻¹ | 57400 M⁻¹ s⁻¹ | 16.2 nM | 0.00142 s⁻¹ | 87400 M⁻¹ s⁻¹ | 5.47 nM | 46200 MFI |  |  |  |  |  |  |  |  |  |  |  |  |
| 21A08Ap1 (antibody, V domains shown, IgG with lambda light chain; also called 21A08p1; 21A8Ap1) VH: EVQLLESGGGLVQPGGSLRLSCAASGFTFSINAMTWVRQAPGKGLEWVSTISGSGFSTYYADSLKGRFTISRDNSKNTLYLQMNSLRAEDTAVYYCAKEVYGDYWGQGTLVTVSS VL: RSVLTQPPSASGTPGQRVSISCSGASSNIGSQSVFWYQQLPGTAPKLLIYSNNQRPSGVPDRFSGSKSGTSASLAISGLRSEDEADYYCAAWDDSLSIWVFGGGTKLTVL |  |  |  |  |  |  |  |  | 3 nM | 0.00016 s⁻¹ | 52000 M⁻¹ s⁻¹ | 0.5 nM | 2.9e-05 s⁻¹ | 57000 M⁻¹ s⁻¹ |  |  |  |  |  |  |
| ZJN296-0 (antibody, human IgG1, V domains shown, human IgG1; also called humanized ZJN296-0; GH + GL) VH: QVQLVQSGAEVKKPGASVKVSCKASGYDFTSHWMHWVRQAPGQGLEWMGAIDPSDSYTNYNQKFKGRVTMTTDTSTSTAYMELRSLRSDDTAVYYCARSPFDYWGQGTTVTVSS VL: DIQMTQSPSSLSASVGDRVTITCKASQDVSTAVAWYQQKPGKAPKLLIYSASYRYTGVPSRFSGSGSGTDFTFTISSLQPEDIATYYCQQHYSFPFTFGQGTKLEIK |  |  |  |  |  |  |  |  |  |  |  |  |  |  | 104 nM | 0.00641 s⁻¹ | 61500 M⁻¹ s⁻¹ | 8.7 nM | 0.000495 s⁻¹ | 56900 M⁻¹ s⁻¹ |
| ZJN296-3 (antibody, V domains shown, human IgG1; also called GH + T073R, GL) VH: QVQLVQSGAEVKKPGASVKVSCKASGYDFTSHWMHWVRQAPGQGLEWMGAIDPSDSYTNYNQKFKGRVTMTTDRSTSTAYMELRSLRSDDTAVYYCARSPFDYWGQGTTVTVSS VL: DIQMTQSPSSLSASVGDRVTITCKASQDVSTAVAWYQQKPGKAPKLLIYSASYRYTGVPSRFSGSGSGTDFTFTISSLQPEDIATYYCQQHYSFPFTFGQGTKLEIK |  |  |  |  |  |  |  |  |  |  |  |  |  |  | 107 nM | 0.00511 s⁻¹ | 47600 M⁻¹ s⁻¹ | 6.57 nM | 0.000369 s⁻¹ | 56100 M⁻¹ s⁻¹ |
| ZJN296-2 (antibody, V domains shown, human IgG1; also called GH + T071V, GL) VH: QVQLVQSGAEVKKPGASVKVSCKASGYDFTSHWMHWVRQAPGQGLEWMGAIDPSDSYTNYNQKFKGRVTMTVDTSTSTAYMELRSLRSDDTAVYYCARSPFDYWGQGTTVTVSS VL: DIQMTQSPSSLSASVGDRVTITCKASQDVSTAVAWYQQKPGKAPKLLIYSASYRYTGVPSRFSGSGSGTDFTFTISSLQPEDIATYYCQQHYSFPFTFGQGTKLEIK |  |  |  |  |  |  |  |  |  |  |  |  |  |  | 72.7 nM | 0.00433 s⁻¹ | 59600 M⁻¹ s⁻¹ | 5.72 nM | 0.000324 s⁻¹ | 56500 M⁻¹ s⁻¹ |
| ZJN296-6 (antibody, V domains shown, human IgG1; also called GH + T071V + T073R, GL) VH: QVQLVQSGAEVKKPGASVKVSCKASGYDFTSHWMHWVRQAPGQGLEWMGAIDPSDSYTNYNQKFKGRVTMTVDRSTSTAYMELRSLRSDDTAVYYCARSPFDYWGQGTTVTVSS VL: DIQMTQSPSSLSASVGDRVTITCKASQDVSTAVAWYQQKPGKAPKLLIYSASYRYTGVPSRFSGSGSGTDFTFTISSLQPEDIATYYCQQHYSFPFTFGQGTKLEIK |  |  |  |  |  |  |  |  |  |  |  |  |  |  | 43.9 nM | 0.00279 s⁻¹ | 63600 M⁻¹ s⁻¹ | 3.22 nM | 0.000201 s⁻¹ | 62600 M⁻¹ s⁻¹ |
